T1: CBC (Homo sapiens, UniProt P52298)
T1 sequence (P52298 1-156): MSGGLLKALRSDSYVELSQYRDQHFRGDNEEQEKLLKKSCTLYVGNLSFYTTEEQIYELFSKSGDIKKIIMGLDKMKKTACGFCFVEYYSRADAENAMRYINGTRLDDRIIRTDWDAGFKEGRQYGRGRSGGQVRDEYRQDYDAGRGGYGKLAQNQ
T1 sequence (Q09161 20-790 partner): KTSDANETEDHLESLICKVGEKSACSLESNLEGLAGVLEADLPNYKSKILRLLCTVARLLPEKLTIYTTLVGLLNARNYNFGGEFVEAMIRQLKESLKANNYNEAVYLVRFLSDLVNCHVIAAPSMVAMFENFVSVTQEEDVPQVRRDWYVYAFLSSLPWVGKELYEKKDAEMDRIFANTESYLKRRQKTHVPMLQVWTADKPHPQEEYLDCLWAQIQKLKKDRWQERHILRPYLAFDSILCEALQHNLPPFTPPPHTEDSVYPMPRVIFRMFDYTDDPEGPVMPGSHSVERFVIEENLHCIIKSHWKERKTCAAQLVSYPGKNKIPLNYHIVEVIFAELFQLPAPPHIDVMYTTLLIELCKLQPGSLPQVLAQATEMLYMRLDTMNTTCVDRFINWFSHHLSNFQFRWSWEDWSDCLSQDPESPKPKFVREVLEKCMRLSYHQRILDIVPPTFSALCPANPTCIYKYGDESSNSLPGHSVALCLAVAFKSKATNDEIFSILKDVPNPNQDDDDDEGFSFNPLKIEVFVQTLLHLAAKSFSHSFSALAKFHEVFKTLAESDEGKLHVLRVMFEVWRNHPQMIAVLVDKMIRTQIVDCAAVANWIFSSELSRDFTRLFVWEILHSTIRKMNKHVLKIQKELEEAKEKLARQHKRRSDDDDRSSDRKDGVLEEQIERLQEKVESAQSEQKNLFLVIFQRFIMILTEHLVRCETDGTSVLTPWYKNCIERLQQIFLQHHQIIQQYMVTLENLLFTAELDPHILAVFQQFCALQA

T2: m^7GTP-CBC (Homo sapiens, UniProt P52298+Q09161)
T2 construct: 6-histidine tag (pETM30 vector) (N, cleaved yes); made in house; host or cells: CBP20 in E. coli Rosetta 2; CBP80ΔNLS in High Five insect cells; heterodimer reconstituted on Ni-sepharose
T2 sequence (Q09161 20-790): T1 sequence (Q09161 20-790 partner)
T2 sequence (P52298 1-156): T1 sequence (P52298 1-156)

B1: NELF-E 244–360: NELF-E fragment that lacks the last 20 residues (protein, UniProt P18615 244-360, looked up, fragment)
chain: GPFRRSDSFPERRAPRKGNTLYVYGEDMTPTLLRGAFSPFGNIIDLSMDPPRNCAFVTYEKMESADQAVAELNGTQVESVQLKVNIARKQPMLDAATGKSVWGSLAVQNSPKGCHRD
B2: ARS2 763–845: human ARS2 isoform 4 residues 763–845, lacks the C-terminal 27 amino acids (protein, UniProt Q9BXP5 763-845, looked up, fragment)
chain: PEIKPAQPPGPAQILPPGLTPGLPYPHQTPQGLMPYGQPRPPILGYGAGAVRPAVPTGGPPYPHAPYGAGRGNYDAFRGQGGY
modifications: isoform 4
notes: human ARS2 isoform 4 residues 763–845, lacks the C-terminal 27 amino acids
B3: PHAX 103–294: human PHAX residues 103–294, minimal CBC binding region (protein, UniProt Q9H814 103-294, looked up, fragment)
chain: SQKPPVAGGKKINNIWGAVLQEQNQDAVATELGILGMEGTIDRSRQSETYNYLLAKKLRKESQEHTKDLDKELDEYMHGGKKMGSKEEENGQGHLKRKRPVKDRLGNRPEMNYKGRYEITAEDSQEKVADEISFRLQEPKKDLIARVVRIIGNKKAIELLMETAEVEQNGGLFIMNGSRRRTPGGVFLNLLK
B4: ARS2^147–845: C-terminally truncated ARS2, residues 147–845 (protein, UniProt Q9BXP5 147-845, looked up, fragment)
chain: PVMKTFKEFLLSLDDSVDETEAVKRYNDYKLDFRRQQMQDFFLAHKDEEWFRSKYHPDEVGKRRQEARGALQNRLRVFLSLMETGWFDNLLLDIDKADAIVKMLDAAVIKMEGGTENDLRILEQEEEEEQAGKPGEPSKKEEGRAGAGLGDGERKTNDKDEKKEDGKQAENDSSNDDKTKKSEGDGDKEEKKEDSEKEAKKSSKKRNRKHSGDDSFDEGSVSESESESESGQAEEEKEEAEEALKEKEKPKEEEWEKPKDAAGLECKPRPLHKTCSLFMRNIAPNISRAEIISLCKRYPGFMRVALSEPQPERRFFRRGWVTFDRSVNIKEICWNLQNIRLRECELSPGVNRDLTRRVRNINGITQHKQIVRNDIKLAAKLIHTLDDRTQLWASEPGTPPLPTSLPSQNPILKNITDYLIEEVSAEEEELLGSSGGAPPEEPPKEGNPAEINVERDEKLIKVLDKLLLYLRIVHSLDYYNTCEYPNEDEMPNRCGIIHVRGPMPPNRISHGEVLEWQKTFEEKLTPLLSVRESLSEEEAQKMGRKDPEQEVEKFVTSNTQELGKDKWLCPLSGKKFKGPEFVRKHIFNKHAEKIEEVKKEVAFFNNFLTDAKRPALPEIKPAQPPGPAQILPPGLTPGLPYPHQTPQGLMPYGQPRPPILGYGAGAVRPAVPTGGPPYPHAPYGAGRGNYDAFRGQGGY
B5: PHAX 103–308: human PHAX residues 103–308 (protein, UniProt Q9H814 103-308, looked up, fragment)
chain: SQKPPVAGGKKINNIWGAVLQEQNQDAVATELGILGMEGTIDRSRQSETYNYLLAKKLRKESQEHTKDLDKELDEYMHGGKKMGSKEEENGQGHLKRKRPVKDRLGNRPEMNYKGRYEITAEDSQEKVADEISFRLQEPKKDLIARVVRIIGNKKAIELLMETAEVEQNGGLFIMNGSRRRTPGGVFLNLLKNTPSISEEQIKDIF
B6: ARS2 763–871: human ARS2 isoform 4 residues 763–871, E. coli expressed (protein, UniProt Q9BXP5 763-871, looked up, fragment)
chain: PEIKPAQPPGPAQILPPGLTPGLPYPHQTPQGLMPYGQPRPPILGYGAGAVRPAVPTGGPPYPHAPYGAGRGNYDAFRGQGGYPGKPRNRMVRGDPRAIVEYRDLDAPD
modifications: isoform 4
notes: human ARS2 isoform 4 residues 763–871, E. coli expressed

Assays:
CBC [1] = target: T1, CBC; assay: Size exclusion chromatography (gel filtration) co-elution with CBC, with m^7GTP; assay type: binding; conditions: gel filtration with 500 µM m^7GTP, fractions analysed by SDS-PAGE
Procedure: Fig. 1 The interaction of CBC with ARS2 is enhanced in the presence of m^7GTP. a Schematic diagram of the domain structure of ARS2 based on ref. [26]. b Gel filtration chromatogram and Coomassie-stained SDS-PAGE of CBC-ARS2 in the presence and absence of m^7GTP. Purified recombinant CBC and ARS2^147–871 were mixed with (orange) or without (blue) 500 µM m^7GTP and subjected to gel filtration. Their elution profiles were overlaid (left) and single fractions analysed by SDS-PAGE (middle and right). Purified recombinant CBC and C-terminally truncated ARS2^147–845 were mixed with 500 µM m^7GTP and analysed in a similar way (bottom left). c ITC data and curve fit to derive the affinity of different ARS2 constructs for CBC. CBC or m^7GTP-CBC in the sample cell was titrated by ARS2. […] K D values and standard deviation represent the average from at least two independent experiments. d Sequence alignment of the C-terminus of ARS2. Conserved residues are highlighted in red. Figure made with ESPript[54]
Fig. 2 The interaction of CBC with NELF-E is enhanced in the presence of m^7GTP. a Schematic diagram of the domain structure of NELF-E. b Gel filtration chromatogram and Coomassie-stained SDS-PAGE of CBC-NELF-E in the presence and absence of m^7GTP. Purified recombinant CBC and NELF-E were mixed with (orange) or without (green) 500 µM m^7GTP and subjected to gel filtration. Their elution profiles were overlaid (left) and single fractions analysed by SDS-PAGE (middle and right). Purified recombinant CBC and NELF-E^244–360 were mixed together with 500 µM m^7GTP and similarly analysed (bottom left). c ITC data and curve fit to derive the affinity of different NELF-E constructs for CBC. CBC or m^7GTP-CBC in the sample cell was titrated by NELF-E^244–380 or NELF-E^360–380. The data were presented as described in the caption to Fig. 1c. d Sequence alignment of the C-terminus of NELF-E. Conserved residues are highlighted in red. Figure made with ESPript[54]

m^7GTP-CBC = target: T2, m^7GTP-CBC; assay: ITC, binding to CBC in the presence of the cap analogue m^7GTP; conditions: ITC, 25 °C, 20 mM HEPES, 120 mM NaCl, 2 mM TCEP, pH 7.8, CBC bound to m^7GTP, mean ± SD of at least two independent experiments
Source text: (§1) hARS2 isoform-4 (871 residues, UniProt:Q9BXP5-4, also known as isoform-e, NP_001122326) constructs (residues 147–871, 147–845, 763–871, 763–845, 827–871) hNELF-E (NM_002904.5) (244–380, 244–360) and hPHAX (NM_032177.3) (1–394, 103–294, 103–308, 103–327) were cloned into pETM11 (EMBL). Full-length hNELF-E (1–380) was cloned into pFASTBac and CBP20 into pETM30. Primers used are given in Supplementary Table 2. All constructs were expressed in E. coli Rosetta 2 (Novagen), except full-length NELF-E and CBP80ΔNLS (CBP80 with residues 1–19 deleted[2]), which were expressed in High Five insect cells (Life Technology). Cells were harvested and lysed by sonication in lysis buffer containing 50 mM HEPES, pH 7.8, 300 mM NaCl, 10% (v/v) glycerol, 5 mM β-mercaptoethanol. Lysates were clarified by centrifugation and applied on an equilibrated Ni-sepharose column (GE Healthcare), washed with 20 mM imidazole in lysis buffer, and eluted with 300 mM imidazole in lysis buffer. While dialysing into 20 mM HEPES, pH 7.8, 120 mM NaCl, 10% (v/v) glycerol, 5 mM β-mercaptoethanol, the N-terminal 6-histidine-tag was cleaved with His-tagged Tobacco Etch Virus (TEV) protease overnight in a ratio 1:100 mg TEV per mg protein. The cleaved protein was further purified first on Ni-sepharose to remove TEV and then using an anion exchange column (HiTrap Q, GE Healthcare) followed if necessary by a Heparin column (GE Healthcare). In both cases a NaCl gradient from 50 to 800 mM in 20 mM HEPES 7.8, 0.5 mM tris(2-carboxyethyl)phosphine was used. To reconstitute the CBC heterodimer, cleared His-tagged CBP20 lysate was first immobilised on a Ni-sepharose column. After washing the column with lysis buffer, the cleared CBP80 lysate was applied to the column and further purification steps performed as described above. To remove the access of CBP20 the flow through of the Ni-column after TEV cleavage was loaded on an anion exchange column (HiTrap Q, GE Healthcare) and CBC eluted by a NaCl gradient as described above. In the text we refer to CBP80ΔNLS and CBP80ΔNLS-CBP20 as CBP80 and CBC, respectively. ARS2^845–871, NELF-E^354–380, and NELF-E^360–380 peptides, with or without FAM label at the N-terminus, were purchased from GenScript.

CBC [2] = target: T1, CBC; assay: ITC, binding to CBC without cap analogue; conditions: ITC (MicroCal ITC200), 25 °C, 20 mM HEPES, 120 mM NaCl, 2 mM TCEP, pH 7.8, single-site fit; no cap analogue pre-bound; mean ± SD of at least two independent experiments; SD
Source text: as §1

| Molecule | Interaction with CBC by SEC in the presence of m^7GTP (CBC [1]) | Kd (CBC [2]) [nM] | also measured |
| --- | --- | --- | --- |
| B1 | no stable complex is observed by SEC | – | – |
| B2 | – | – | K D (m^7GTP-CBC): failed to bind |
| B3 | – | 850 ± 210 | – |
| B4 | failed to bind | – | – |
| B5 | – | 600 ± 140 | – |
| B6 | – | – | Kd (m^7GTP-CBC; SD): 1000 ± 300 nM |

From publication PMC5670239, “Structural basis for mutually exclusive co-transcriptional nuclear cap-binding complexes with either NELF-E or ARS2” (Nature Communications, 2017)
